“Also recorded” adds a separate entry of the source.
Key:
granulocytes = assay: Granulocyte reactivity, whole-blood indirect fluorescent flow cytometric analysis; type: binding
Description: (§1) Hybridoma supernatants were screened for CEA reactive antibody by the ROCHE® ^125I-CEA radioimmunoassay (RIA) in 0.01 and 0.10 M NH4 acetate buffer. Positive clones were recloned. The granulocyte reactivity of CEA-reactive MAb was determined by whole-blood indirect fluorescent flow cytometric analysis (Sharkey et al. Cancer Res., 1990, 50:2823-31). Two MAb with properties similar to those of NP-2 and NP-3, designated MN-2 and MN-6, were selected for additional development.
Immunoreactivity with blood lymphocytes was determined by live-cell indirect immunofluorescence, with the use of the whole blood staining method developed for use with the ORTHO SPECTRUM® I11 flow cytometer (Ortho Diagnostic Systems, Inc., Raritan, N.J.). Tissue reactivity of the MAb was determined by immunohistologic examination performed on frozen sections and 5-μm sections cut from tissue embedded in Paraplast-II. Indirect immunofluorescence on frozen sections was performed as previously described, with MAb concentrations of 20 μg/ml (Pawlak-Byczkowska et al., Cancer Res 1989, 49:4568-77).

[1] = tested on: MCF-7 adhesion to fibronectin; assay: Adhesion to extracellular matrix proteins assay, MCF-7; type: cell-based, human
Description: Adhesion to extracellular matrix proteins assay—The assay was done using the CYTOMATRIX™ screening kit from CHEMICON® (Kit #ECM205, Temecula, Calif.). The kit contains 96-well plates with strips coated with fibronectin, vitronectin, laminin, collagen-I, or collagen-IV. Subconfluent cell cultures were used for these studies. Cells (1×10^6 cells/mol) were seeded onto coated substrate and incubated at 37° C. for 1 hour in a CO2 incubator in PBS containing Ca^2+/Mg^2+ (200 μL per well). Adherent cells were fixed and stained. The plate was washed to remove unadhered cells and stained with 100 μL per well of MTS (Cell Titer Aq 96, PROMEGA®, Madison, Wis.) for 5 minutes at room temperature. Excess stain was removed with three PBS washes. Solubilization buffer [100 μL of a 50:50 mixture of 0.1 mol/L NaH2PO4 (pH 4.5) and 50% ethanol] was added to each well. Relative attachment was determined using absorbance readings (A540 nm-A570 nm).

^125I-CEA = biological target: T1, ^125I-CEA (Homo sapiens, UniProt P06731); assay: ROCHE 125I-CEA radioimmunoassay (RIA); type: binding; conditions: 0.01 and 0.10 M NH4 acetate buffer
T1 construct: purchased ROCHE
T1 sequence (P06731 35-676): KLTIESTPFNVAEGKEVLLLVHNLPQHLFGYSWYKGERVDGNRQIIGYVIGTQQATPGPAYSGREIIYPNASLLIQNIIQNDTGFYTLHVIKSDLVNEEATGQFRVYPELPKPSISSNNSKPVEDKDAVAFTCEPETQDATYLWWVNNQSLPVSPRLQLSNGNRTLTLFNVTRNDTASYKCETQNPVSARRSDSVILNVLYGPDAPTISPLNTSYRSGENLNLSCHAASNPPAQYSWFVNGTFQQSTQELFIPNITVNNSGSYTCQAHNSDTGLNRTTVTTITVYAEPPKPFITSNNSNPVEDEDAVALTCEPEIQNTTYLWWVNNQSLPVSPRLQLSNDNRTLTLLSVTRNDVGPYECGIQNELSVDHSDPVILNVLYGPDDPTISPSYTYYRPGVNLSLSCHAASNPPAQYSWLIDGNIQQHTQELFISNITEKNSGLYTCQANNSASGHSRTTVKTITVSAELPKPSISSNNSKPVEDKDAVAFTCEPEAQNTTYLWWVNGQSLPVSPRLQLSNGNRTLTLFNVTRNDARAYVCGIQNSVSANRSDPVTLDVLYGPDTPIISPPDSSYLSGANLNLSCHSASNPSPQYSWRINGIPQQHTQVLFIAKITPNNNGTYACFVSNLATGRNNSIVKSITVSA
Description: as §1

CEA (HeLa-CEA2) = biological target: T2, CEA (HeLa-CEA2) (Homo sapiens, UniProt P06731); assay: Indirect flow cytometry, HeLa-CEA2; type: binding; conditions: antibodies at 1/50 dilution of 1 mg/ml stocks
T2 construct: expressed in transfected cells; host or cells: HeLa (HeLa-CEA2)
T2 sequence (P06731 35-676): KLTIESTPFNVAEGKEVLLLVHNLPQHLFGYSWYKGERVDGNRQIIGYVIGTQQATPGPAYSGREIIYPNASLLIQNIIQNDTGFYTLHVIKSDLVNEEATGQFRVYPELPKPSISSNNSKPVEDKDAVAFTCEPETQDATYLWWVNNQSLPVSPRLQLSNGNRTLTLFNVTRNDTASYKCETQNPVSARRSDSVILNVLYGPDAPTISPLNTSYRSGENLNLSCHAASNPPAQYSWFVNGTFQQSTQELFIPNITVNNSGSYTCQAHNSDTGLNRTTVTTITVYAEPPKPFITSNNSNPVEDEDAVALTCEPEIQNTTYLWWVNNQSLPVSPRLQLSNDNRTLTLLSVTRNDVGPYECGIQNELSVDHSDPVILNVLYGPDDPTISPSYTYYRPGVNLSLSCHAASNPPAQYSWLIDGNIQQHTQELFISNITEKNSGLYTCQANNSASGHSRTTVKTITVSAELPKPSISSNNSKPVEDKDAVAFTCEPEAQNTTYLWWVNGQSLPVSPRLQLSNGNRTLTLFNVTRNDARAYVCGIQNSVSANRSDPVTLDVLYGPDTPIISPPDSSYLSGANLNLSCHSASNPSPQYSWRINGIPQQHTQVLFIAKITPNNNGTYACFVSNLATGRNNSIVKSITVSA
Description: The reactivity of antibodies was tested by flow cytometry with a Becton-Dickinson FACSCAN®. The biotinylated second antibody was directed against mouse IgG and was detected by a streptavidin/phycoerythrin conjugate. Tests were carried out with antibodies at 1/50 dilution of 1 mg/ml stocks.
The antibodies MN-3 and MN-15 were tested for recognition of HeLa cells transfected with cDNA coding for CEA (HeLa-CEA2), NCA-90 (HeLa-KNC6/S44) and NCA-95 (HeLa-CGM6/1). As a negative control, HeLa cells transfected with the plasmid pSV2-Neo (control HeLa cells, HeLa-NeoA) were used. In addition to the antibodies MN-3 and MN-15, three control antibodies were included: […]

ZR75-30 cells = assay: Collagen-based invasion assay, ZR75-30; type: cell-based, human; conditions: 10% FBS chemoattractant, 72-hour incubation
Description: (§2) Collagen-based invasion assay—The assay was done using CHEMICON® Kit (#ECM551, MILLIPORE®, Billerica, Mass.). Tumor cells at 80% confluence and were serum-starved for 18 to 24 hours before the assay was used. Cells were harvested with 5 mol of 2 mmol/L EDTA/PBS per 100-mm dish and incubated at 37° C. for 5 to 15 minutes. Cells were collected into 10 to 20 mol of quenching medium (serum-free DMEM containing 5% BSA) to inactivate trypsin/EDTA from the harvesting buffer. Cells were pelleted, resuspended in quenching medium (1×10^6 cells/mol), and appropriate antibody Fabs were added to individual cell aliquots. Cell invasion potential was determined as follows. Baseline invasion and invasion in the presence of a chemoattractant (10% FBS) were measured after a 72-hour incubation period at 37° C. in a 5% CO2 incubator. The bottom side of the collagen-coated polycarbonate membrane insert of the invasion chamber was placed in 400 μL of cell stain for 20 minutes at room temperature and washed. The dye was extracted and transferred into a 96-well microtiter plate for colorimetric measurements (A560 nm).

CaPAN-1 cells = assay: Collagen-based invasion assay, CaPAN-1; type: cell-based, human; conditions: 10% FBS chemoattractant, 72-hour incubation
Description: as §2

Molecule	granulocyte reactivity (granulocytes)	decrease of adhesion to fibronectin [1]	ion sensitivity of CEA binding / reactivity with ion-sensitive CEA determinant (^125I-CEA)	binding to CEA (CEA (HeLa-CEA2))	reduction in cell invasion (ZR75-30 cells)	reduction in cell invasion (CaPAN-1 cells)
MN-15: murine Class I anti-CEA MAb, IgG1 kappa, binds A1B1 domain of CEACAM5 and CEACAM6 (antibody, V domains shown) VL: DIQLTQSPAIMSASPGEKVTMTCSASSRVSYIHWYQQKSGTSPKRWIYGTSTLASGVPARFSGSGSGTSYSLTISSMEAEDAATYYCQQWSYNPPTFGAGTKLELKR VH: EVRLVESGGGLVQGPGSLRLSCAASGFALTDYYMSWVRQSPGKTLEWLGFIANKANGHTTDYSPSVKGRFTISRDNSQTILYLQMNTLRTEDSATYYCARDMGIRWNFDVWGQGTTVTVSS	granulocyte-reactive; also recorded: high granulocyte reactivity; also recorded: reacted strongly with granulocytes	29%	binding to epitopes of the ion-sensitive CEA determinant	binds to all three antigens	–	–
MN-15 Fab′: monovalent Fab′ fragment of murine MN-15 (antibody, V domains shown) VL: DIQLTQSPAIMSASPGEKVTMTCSASSRVSYIHWYQQKSGTSPKRWIYGTSTLASGVPARFSGSGSGTSYSLTISSMEAEDAATYYCQQWSYNPPTFGAGTKLELKR VH: EVRLVESGGGLVQGPGSLRLSCAASGFALTDYYMSWVRQSPGKTLEWLGFIANKANGHTTDYSPSVKGRFTISRDNSQTILYLQMNTLRTEDSATYYCARDMGIRWNFDVWGQGTTVTVSS	–	–	–	–	49%	73%
